How the values were obtained:
[1] = target: T1, HCoV-HKU1 S2 stem helix peptide (Human coronavirus HKU1, isolate N1, biotin on the N-terminus); assay: BLI; conditions: both partners purified
T1 chain: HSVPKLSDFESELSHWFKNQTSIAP

[2] = target: T2, SARS-CoV-2 spike, full length, expressed on the cell surface (SARS-CoV-2, UniProt P0DTC2); assay: cell-based or functional assay
[3] = target: T2, SARS-CoV-2 spike, full length, …; assay: flow cytometry on cells; conditions: one partner purified
[4] = target: T3, HCoV-HKU1 S2 stem helix peptide, biotinylated (Human coronavirus HKU1, isolate N1, biotin on the N-terminus); assay: BLI; conditions: both partners purified
T3 construct: also called HCoV-HKU1 stem helix peptide
T3 chain: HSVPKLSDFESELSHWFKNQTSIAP

B1: eCC65.1-12 (antibody, V domains shown)
VH: EVQLVQSGAEVKKPGASVKVSCKASGYTFTSQYMHWVRQAPGQGLEWMGIIDPSGGGTSYAQKFRDRVSMTRDTPTSTVYMELRSLRSEDTAVYYCASLWFENPSWRDYWGQGTLVTVSS
VL: DVVMTQSPGTLSLSPGERATLSCRASQTVNKNYLAWYQQKPGQAPRLLIYHASSRATGIPDRFSGSGSGTDFTLTISRLEPEDFAVYYCQQYGASPPLFTFGPGTKLEIK
B1 gave a Kd [1] of 129 pM and a kon [1] of 301000 M⁻¹ s⁻¹.

B2: CC65.1 human monoclonal antibody (IgG) (antibody, V domains shown)
VH: EVQLVQSGAEVKKPGASVKVSCKASGYTFTSQYMHWVRQAPGQGLEWMGIIDPSGGGTSYAQKFRDRVSMTRDTPTSTVYMELRSLRSEDTAVYYCASLWFENPSWRDYWGQGTLVTVSS
VL: DVVMTQSPGTLSLSPGERATLSCRASQTVNSNYLAWYQQKPGQAPRLLIYRASSRATGIPDRFSGSGSGTDFTLTISRLEPEDFAVYYCQQYGSSPPLFTFGPGTKLEIK
In the case of B2, the “IC50 of neutralization of SARS-CoV-2 pseudovirus (HeLa-hACE2 cells)” value [2] is reported as 6.16 µg/mL.

B3: engineered CC65.1 mAb eCC65.1-12 (IgG) (antibody, V domains shown)
VH: EVQLVQSGAEVKKPGASVKVSCKASGYTFTSQYMHWVRQAPGQGLEWMGIIDPSGGGTSYAQKFRDRVSMTRDTPTSTVYMELRSLRSEDTAVYYCASLWFENPSWRDYWGQGTLVTVSS
VL: DVVMTQSPGTLSLSPGERATLSCRASQTVNKNYLAWYQQKPGQAPRLLIYHASSRATGIPDRFSGSGSGTDFTLTISRLEPEDFAVYYCQQYGASPPLFTFGPGTKLEIK
notes: copies: 2 + 2
B3 was tested, and the binding result [3] was “binds” and the “fold increase in affinity over parental CC65.1” value [4] was 6.7 fold.
